Experimental data taken from patent US7056679B2, “Target specific screening and its use for identifying target binders” (Antyra, Inc., priority 2001, dated 2006).

Key:
DGI-2 = target: T1, DGI-2 (Homo sapiens, UniProt Q15004); assay: ELISA analysis of phage on DGI-2 polypeptide (specific binding); details: for DGI-2 (OD): binding to DGI-2 polypeptide (specific binding), phage ELISA units read at 405 nm; for DGI-2/LDH (OD): ratio of specific binding to non-specific binding
T1 construct: encompassed the entire DGI-2 open reading frame (ORF); His-tag of vector pIVEX2.3-MCS (inferred from the vector and from the reverse primer lacking a stop codon); made in house; host or cells: cell-free in vitro translation (Rapid Translation System RTS, Roche; E. coli lysate)
T1 sequence (Q15004 1-111): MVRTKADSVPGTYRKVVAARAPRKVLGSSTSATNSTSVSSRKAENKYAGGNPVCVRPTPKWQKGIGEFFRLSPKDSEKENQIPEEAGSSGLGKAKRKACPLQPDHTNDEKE
Method in brief: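 Recombinant DGI-2 from in vitro translation, LDH (non-specific) and controls were coated at 500 ng/well and blocked with 2% milk-PBS. Phage from individual clones bound for 2 hr at room temperature, then anti-M13-HRP with ABTS was read at 405 nm; a clone counted as positive at ≥2-fold over background.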

[1] = system: lactate dehydrogenase (LDH); assay: ELISA analysis of phage on LDH (irrelevant, non-specific target); format: binding; details: peptide binding to LDH polypeptide (non-specific binding); phage ELISA units read at 405 nm
Method in brief: (§1)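 Phage from picked clones (M13KO7 helper) bound 2 hr at room temperature to wells coated overnight at 4 °C with 500 ng/well anti-ETAG antibody or LDH, milk-blocked. Detection with HRP-anti-M13 (1:3000) and ABTS at 405 nm; positive when A405 ≥2-fold over background.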

E-tag antibody = assay: ELISA analysis of phage on antibody raised against ETAG (positive control); details: peptide binding to E-tag antibody; phage ELISA units read at 405 nm
Method in brief: as §1

| Substance | DGI-2 (OD) (DGI-2) | DGI-2/LDH (OD) (DGI-2) | LDH (OD) [1] | ETAG (OD) (E-tag antibody) |
| --- | --- | --- | --- | --- |
| GQISLAGVAVCSSERMLLAFSSRVFLPGLKVPVTTSQRGS (DGI-2-40F-3-A8; listed as Escherichia coli) | 0.8 OD | 1.1 | 0.8 OD | 1.5 OD |
| ALRSLGSGGFGWQAGRASPQGMTHFPYFGWSGMPTARVRP (DGI-2-40F-3-D7; listed as Escherichia coli) | 2.6 OD | 2.6 | 1.0 OD | 10.3 OD |
| LGRTFVWGTCLHLSVSRFGH (DGI-2-20F-PP-C3; listed as Escherichia coli) | 5.3 OD | 5.1 | 1.0 OD | 39.9 OD |
| FGRDGDGIQRRQGGFSWVGDR (DGI-2-20F-PP-E2; listed as Escherichia coli) | 1.7 OD | 2.4 | 0.7 OD | 11.6 OD |
| WEVGQVEKFSRGVGGWWPTG [DGI-2-20R-3-D3] | 8.3 OD | 8.3 | 1.0 OD | 16.8 OD |
| LQIVRPAGMTKMPGQVGYYIG (LQIVRPAGWKMPGQVGYYIG; DGI-2-20R-3-A9; listed as Escherichia coli) | 3.4 OD | 3.4 | 1.0 OD | 14.3 OD |
| LFSATGCALMSGFCLGSDGS (DGI-2-20R-3-C1; listed as Escherichia coli) | 8.2 OD | 8.3 | 1.0 OD | 14.0 OD |
| YTPASILTGFQRGYEGAGNG (DGI-2-20R-4-G7; listed as Escherichia coli) | 4.7 OD | 3.9 | 1.2 OD | 11.6 OD |
| SLSLYWDAQVGCEVFWGYCV (DGI-2-20R-3-C10; listed as Escherichia coli) | 2.2 OD | 2.1 | 1.0 OD | 14.7 OD |
| SWRLWVSGELQGDRRKGLRG (DGI-2-20R-3-B7; listed as Escherichia coli) | 3.1 OD | 3.0 | 1.0 OD | 11.7 OD |
| DYKGRTMTSPIMSALPVYDRLHGIGSRGQNMD (DYKGRTMTSPIMSALPVYDRLHGAIGSRGQNMD; DGI-2-20C-3-B3; listed as Escherichia coli) | 0.8 OD | 0.9 | 0.9 OD | 7.7 OD |
| RDHRYVGWGRATFRHDQSVW (DGI-2-20F-PP-H1; listed as Escherichia coli) | 1.7 OD | 1.4 | 1.2 OD | 1.4 OD |
| RRTSADTDQLSRWEGAQAFSSLRSALSERLDSLRPGLPPS (DGI-2-40F-3-D9; listed as Escherichia coli) | 1.1 OD | 1.4 | 0.8 OD | 15.8 OD |
| GRAGTSMTELVAWGFVQRVG (DGI-2-20F-PP-H10; listed as Escherichia coli) | 1.4 OD | 1.9 | 0.7 OD | 13.0 OD |
| TVKFQGVVQERSRIAGFRYCGDHAVSWGLAGCPALRDKLQ (DGI-2-40F-3-C424; listed as Escherichia coli) | 5.5 OD | 5.2 | 1.1 OD | 14.8 OD |
| RRGVCEIFTGWCVGQTNERP (DGI-2-20R-4-H626; listed as Escherichia coli) | 9.6 OD | 8.8 | 1.1 OD | 13.5 OD |

Now from value to substance, other results behind:

| DGI-2 (OD) (DGI-2) | DGI-2/LDH (OD) (DGI-2) | LDH (OD) [1] | Substance | ETAG (OD) (E-tag antibody) |
| --- | --- | --- | --- | --- |
| 9.5 OD | 9.0 | 1.1 OD | LVIGQRSFLSACSLFDGFCV (DGI-2-20R-4-H814; listed as Escherichia coli) | 13.5 OD |
| 1.1 OD | 1.3 | 0.8 OD | WFTHVVEKIF [DGI-2-40F-3-A4] | 6.7 OD |
| 3.9 OD | 3.7 | 1.1 OD | DAGIGWVGSMWFPPGCIGAC (DGI-2-20R-4-E82; listed as Escherichia coli) | 19.6 OD |
| 3.2 OD | 3.2 | 1.0 OD | SYRNFAMQSSLQVRRGSVVEDGTCWWEGVRCYSG (DGI-2-40F-4-F6; listed as Escherichia coli) | 13.5 OD |
| 1.3 OD | 1.4 | 1.0 OD | MQAASTLSTYMGAIRMGYPILHWDRGGVQRVDPGLYRGRV (DGI-2-40F-3-B10; listed as Escherichia coli) | 4.8 OD |
| 0.8 OD | 1.0 | 0.8 OD | MGQGFHYNRQPYMSHQCYAFTFSTPFLDGDRIPHGVSRGL (DGI-2-40F-3-D1; listed as Escherichia coli) | 4.1 OD |
| 2.0 OD | 2.2 | 0.9 OD | SAFGCPLPRALGGGGARFYA (DGI-2-20F-PP-E11; listed as Escherichia coli) | 15.2 OD |
| 5.6 OD | 5.3 | 1.1 OD | VVRQGCMAFSGLCSGVTESE (DGI-2-20R-3-C8; listed as Escherichia coli) | 21.1 OD |
| 1.0 OD | 1.2 | 0.8 OD | DYKTCVSQHVHPLFGEYFYHKVTHMSILSPTFRVTSLYG.K (DYKTCVSQHVHPLFGEYFYHKVTHMSILSPTFRVTSLYGK; DGI-2-40F-3-B95; listed as Escherichia coli) | 5.4 OD |
| 1.5 OD | 1.7 | 0.9 OD | TLVTEGNIKGSVKAHKDIGVWQLWWDWLSVTDSETVGRVSH (TLVTEGNKGSVKAHKDIGVWQLWWDWLSVTDSETVGRVSH; DGI-2-40F-3-D10; listed as Escherichia coli) [DGL-2-40F-3-D10] | 10.3 OD |
| 3.4 OD | 3.0 | 1.1 OD | RGSLLLTLPRLSGAVGTAYG (DGI-2-20F-PP-B3; listed as Escherichia coli) | 11.7 OD |
| 2.5 OD | 2.9 | 0.9 OD | PVYRVAMCRISVGCSAGAWF (DGI-2-20F-PP-C12; listed as Escherichia coli) | 36.4 OD |
| 2.7 OD | 2.3 | 1.2 OD | WVVALRRIRLGLRRGVECLL (DGI-2-20F-PP-D5; listed as Escherichia coli) | 33.6 OD |
| 1.6 OD | 1.9 | 0.8 OD | RGVNSDMPRLYICRADGQGQ (DGI-2-20F-PP-H6; listed as Escherichia coli) | 18.9 OD |
| 2.3 OD | 2.2 | 1.1 OD | RQRSGGRWVVDRVTRVASTSP (DGI-2-20F-PP-B12; listed as Escherichia coli) | 1.9 OD |
| 7.1 OD | 6.3 | 1.1 OD | EGNWFCAVFRGFCVGDRGPE (DGI-2-20R-3-A1; listed as Escherichia coli) | 11.1 OD |
| 1.8 OD | 1.9 | 1.0 OD | FGSTAYADMLSQFRKFAMNIS (DGI-2-20F-PP-E1; listed as Escherichia coli) | 33.4 OD |
| 8.7 OD | 8.1 | 1.1 OD | CGGWGAMWEAWVQGLNGAGC (DGI-2-20R-3-D4; listed as Escherichia coli) | 18.9 OD |
| 0.9 OD | 1.1 | 0.8 OD | CAYRWGLFRGPGRVDYDLQVVGIMMWPGPIPDRSSRGSVA (DGI-2-40F-3-A7; listed as Escherichia coli) | 8.7 OD |
| 2.2 OD | 2.5 | 0.9 OD | GLYRRAGDASVGFSRWGREDCQVYFSVECLLGSSWGGYS (GLYRRAGDASVGFSRWGRFDCQVYFSVECLLGSSWGGYS; DGI-2-40F-4-F12; listed as Escherichia coli) | 8.7 OD |
| 6.6 OD | 6.0 | 1.1 OD | SLECWAMPGMVVRLVGCDGP (DGI-2-20R-4-H112; listed as Escherichia coli) | 12.3 OD |
| 6.3 OD | 6.2 | 1.0 OD | WWERFVWGRPVDDGVVVMAT (DGI-2-20R-3-B1; listed as Escherichia coli) | 14.5 OD |
